Changes are numbered by the printed parent chain. Numbers in names are those of the source. Values belong to the binder of their own block, whether it stands above or below them.
Columns and labels:
[1] = molecular target: T1, human GDF15 (hGDF15), mature, wild-type (human, UniProt Q99988 197-308); experiment: competition ELISA: GFRAL immobilised, biotinylated GDF15 plus serially diluted antibody; inhibition of GDF15-GFRAL complex formation
T1 construct: Bought recombinant protein: R&D Systems 957-GD-025/CF in most assays, 9279-GD in the crystal and the GDF15/GFRAL/RET assay; It was biotinylated in the GFRAL assay; also called hGDF15 (WT); rhGDF15
T1 sequence: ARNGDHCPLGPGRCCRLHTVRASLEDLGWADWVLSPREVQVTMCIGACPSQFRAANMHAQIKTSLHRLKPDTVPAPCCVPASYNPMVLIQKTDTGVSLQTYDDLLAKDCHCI
Source text: First, the effect on GDF15 and GFRAL complex formation was examined (FIG. 12). GFRAL (R&D systems, 9697-GR) was immobilized on a plate, and GDF15 (R&D systems, 957-GD/CF) biotinylated with EZ-Link Micro NHS-PEG4-Bitinylation Kit (Thermo Fisher Scientific, 21955) and a serially diluted solution of an anti-GDF15 monoclonal antibody (Table 26) were reacted with the plate. Human IgG1, kappa-Isotype Control (Abcam) was used as a negative control antibody. GDF15 bound to GFRAL was detected using Pierce High Sensitivity Streptavidin-HRP (Thermo Fisher Scientific, 21130). TMB 1-Component Microwell Peroxidase Substrate, SureBlue (SeraCare Life Sciences) was used for color development, and the reaction was stopped by adding a stop solution (Wako). Absorbance was measured at 450 nm (OD450) using Emax (Molecular Devices). The % of control value was calculated according to Equation-1 from the OD450 value when each antibody was added, with the OD450 value when no antibody was added as a control. The IC50 value was obtained by calculating the inhibition rate from the % of control value thus obtained according to Equation-2 and using an Excel macro for IC50 calculation.

mutant hGDF15 R16A = molecular target: T2, mutant hGDF15 R16A (human, UniProt Q99988 197-308); experiment: sandwich ELISA: antibody immobilised, WT or mutant hGDF15, goat polyclonal detection; N=3, mean ± SD
T2 construct: Expressed in ExpiCHO-S cells and used as culture supernatant in the ELISA
T2 chain: T1 sequence with R16A

mutant hGDF15 R13A = molecular target: T3, mutant hGDF15 R13A (human, UniProt Q99988 197-308); experiment: as above
T3 construct: Expressed in ExpiCHO-S cells and used as culture supernatant in the ELISA
T3 chain: T1 sequence with R13A

mutant hGDF15 H6A = molecular target: T4, mutant hGDF15 H6A (human, UniProt Q99988 197-308); experiment: as above
T4 construct: Expressed in ExpiCHO-S cells and used as culture supernatant in the ELISA
T4 chain: T1 sequence with H6A

mutant hGDF15 8A = molecular target: T5, mutant hGDF15 8A (human, UniProt Q99988 197-308); experiment: as above
T5 construct: Expressed in ExpiCHO-S cells and used as culture supernatant
T5 chain: T1 sequence with P8A, L9A, G10A, P11A, G12A, R13A, R16A, L17A

mutant hGDF15 T72A = molecular target: T6, mutant hGDF15 T72A (human, UniProt Q99988 197-308); experiment: as above
T6 construct: Expressed in ExpiCHO-S cells and used as culture supernatant in the ELISA
T6 chain: T1 sequence with T72A

mutant hGDF15 R13A, R16A = molecular target: T7, mutant hGDF15 R13A, R16A (human, UniProt Q99988 197-308); experiment: as above
T7 construct: Expressed in ExpiCHO-S cells and used as culture supernatant in the ELISA
T7 chain: T1 sequence with R13A, R16A

mutant hGDF15 6A = molecular target: T8, mutant hGDF15 6A (human, UniProt Q99988 197-308); experiment: as above
T8 construct: Expressed in ExpiCHO-S cells and used as culture supernatant
T8 chain: T1 sequence with G10A, P11A, G12A, R13A, R16A, L17A

mutant hGDF15 3A = molecular target: T9, mutant hGDF15 3A (human, UniProt Q99988 197-308); experiment: as above
T9 construct: Expressed in ExpiCHO-S cells and used as culture supernatant
T9 chain: T1 sequence with G12A, R13A, R16A

mutant hGDF15 4A = molecular target: T10, mutant hGDF15 4A (human, UniProt Q99988 197-308); experiment: as above
T10 construct: Expressed in ExpiCHO-S cells and used as culture supernatant
T10 chain: T1 sequence with G12A, R13A, R16A, L17A

[2] = molecular target: T1, human GDF15 (hGDF15), mature, wild-type; experiment: competition (sandwich) ELISA: clone immobilised, hGDF15 captured; competitor: biotinylated HuMAB2
Experimental: HuMAB2 and the anti-GDF15 monoclonal antibodies shown in Table 5 (2 μg/mL) were added to 96-well plates at 100 μL/well to be immobilized on the plates, and reacted with 100 μL/well of hGDF15 (R&D Systems, 957-GD-025/CF) serially diluted from a concentration of 1 ng/ml. HuMAB2 biotinylated using EZ-Link Micro NHS-PEG4-Bitinylation Kit (Thermo Fisher Scientific, 21955) was used as the detection antibody (1 μg/mL as 100 μL/well). Whether or not sandwich ELISA was established was determined using Streptavidin-HRP conjugate in Human GDF15 ELISA Kit (R&D Systems, DY957). The detection antibody in Human GDF15 ELISA Kit (R&D Systems, DY957) (Table 5), which can establish sandwich ELISA with any monoclonal antibody, was used as a positive control antibody (PC) for sandwich ELISA.
Then, other antibodies obtained this time were tested to see whether each of these antibodies competes with HuMAB2 by the same method as described above.

[3] = molecular target: T1, human GDF15 (hGDF15), mature, wild-type; experiment: ELISA, hGDF15 immobilised; binding at 5 ng/mL antibody, HuMAB2 = 100
Experimental: A 100 μL hGDF15 solution (0.4 μg/ml) was added to a 96-well plate and left at 4° C. until the next morning to prepare a plate for ELISA. To the plate, 1% BSA was added for blocking for 1 hour. A dilution series of the culture supernatant containing the variant antibody was prepared from 30-fold dilution (common ratio of dilution factor was 3), and 100 μL of each solution was added to the ELISA plate and left for 2 hours. As a secondary antibody, an HRP conjugated anti-human IgG antibody (Gene Tex, GTX26759) (20000-fold dilution) was added and left for 1 hour. TMB (Sigma, T-0440) was used for color development reaction, and 2N sulfuric acid was used as a reaction terminator. The absorbance was measured at 450 nm.

[4] = molecular target: T1, human GDF15 (hGDF15), mature, wild-type; experiment: ELISA, hGDF15 immobilised

B2: MAB1 (antibody, V domains shown)
VH: EVQLQQSGPELEKPGASVKISCKASGYSFTGYNMNWVKQSNGKSLEWIGNIDPYYGGTSYNQKFKGKATLTVDKSSSTAYMQLKSLTSEDSAVYYCARPGRYDGAWFAYWGQGTLVTVSA
VL: QIVLSQSPAILSASPGEKVTMTCRASSNVNYMHWYQQKPGSSPKPWIYATSNLASGVPARFSGSGSGTSYSLTISRVEAEDAATYYCQQWSDNPLTFGAGTKLELK
notes: Mouse monoclonal antibody from hybridoma; also called clone MAB1
Inhibition % [2]: 82%

B3: H3-L48K (antibody, human IgG1, kappa, V domains shown)
VH: QVQLQESGPGLVKPSETLSLTCTVSGFSINSDCYWIWIRQPPGKGLEYIGYTFYSGITYYNPSLASRTTISRDTSKNQFSLKLSSVTAADTAVYYCARDCDYAMDYWGQGTLVTVSS
VL: DIQMTQSPSSLSASVGDRVTITCRASQKISNYLNWYQQKPGKAVKLLIHYTSTLHSGVPSRFSGSGSGTDYTLTISSLQPEDFATYFCQQGNTLPWTFGQGTKLEIKR
notes: In the label, L means the L chain; Tested as culture supernatant; also called HuMAB2 variant L48K
fold change in binding strength compared to HuMAB2 [3]: ~1.5 fold

B4: H49R-L7 (antibody, human IgG1, kappa, V domains shown)
VH: B3 VH with S31R
VL: B3 VL with K28D
notes: In the label, H means the H chain; also called HuMAB2 variant H49R
binding result [4]: binds

B5: H83R-L7 (antibody, human IgG1, kappa, V domains shown)
VH: B3 VH with A65R
VL: B3 VL with K28D
notes: In the label, H means the H chain; Tested as culture supernatant; also called HuMAB2 variant H83R
fold change in binding strength compared to HuMAB2 [3]: ~1.5 fold

B7: H49D-L7 (antibody, human IgG1, kappa, V domains shown)
VH: B3 VH with S31D
VL: B3 VL with K28D
notes: In the label, H means the H chain; also called HuMAB2 variant H49D
binding result [4]: binds

B10: H3-L72F (antibody, human IgG1, kappa, V domains shown)
VH: B3 VH
VL: B3 VL with K28D, S52F
notes: In the label, L means the L chain; also called HuMAB2 variant L72F
binding result [4]: binds

B11: H3-L74H (antibody, human IgG1, kappa, V domains shown)
VH: B3 VH
VL: B3 VL with K28D, L54H
notes: In the label, L means the L chain; also called HuMAB2 variant L74H
binding result [4]: binds

B13: MAB13 (antibody, V domains shown)
VH: EIQLQQTGPELVKPGASVKISCKASGYSFTDYIMLWVKQRHGKSLEWIGNIHPYYGTTSYNLKFKGKATLTVDKSSSTAYMQLNSLTSEDSAVYYCARGIGGSPFAYWGQGTLVTVSA
VL: DVLMTQTPLSLPVSLGDQASISCRSSQSIVHSNGNTYLEWYLQKPGQSPKLLIYKVSNRFSGVPDRFTGTGSGTDFTLKISRVEAEDLGVYYCFQGSHVPYTFGGGTKLEIK
notes: Mouse monoclonal antibody from hybridoma; also called clone MAB13
Inhibition % [2]: 79%

Other lines, results leading:

IC50 [1]: 0.05 nM | relative binding (amount bound to 500 pg/mL hGDF15 = 100) (mutant hGDF15 R16A): 102 relative value (WT hGDF15 = 100) | relative binding (amount bound to 500 pg/mL hGDF15 = 100) (mutant hGDF15 R13A): 91.4 relative value (WT hGDF15 = 100) | relative binding (amount bound to 500 pg/mL hGDF15 = 100) (mutant hGDF15 H6A): 90.5 relative value (WT hGDF15 = 100) | relative binding (amount bound to 500 pg/mL hGDF15 = 100) (mutant hGDF15 8A): 57.1 relative value (WT hGDF15 = 100) | relative binding (amount bound to 500 pg/mL hGDF15 = 100) (mutant hGDF15 T72A): 108 relative value (WT hGDF15 = 100) | relative binding (amount bound to 500 pg/mL hGDF15 = 100) (mutant hGDF15 R13A, R16A): 87.6 relative value (WT hGDF15 = 100) | relative binding (amount bound to 500 pg/mL hGDF15 = 100) (mutant hGDF15 6A): 61.6 relative value (WT hGDF15 = 100) | relative binding (amount bound to 500 pg/mL hGDF15 = 100) (mutant hGDF15 3A): 96.2 relative value (WT hGDF15 = 100) | relative binding (amount bound to 500 pg/mL hGDF15 = 100) (mutant hGDF15 4A): 83.5 relative value (WT hGDF15 = 100)
B1: Hu01G06-127 (antibody, V domains shown)
VH: QVQLVQSGAEVKKPGASVKVSCKASGYTFTDYNMDWVRQAPGQSLEWMGQINPNNGLIFFNQKFQGRVTLTTDTSTSTAYMELRSLRSDDTAVYYCAREAITTVGAMDYWGQGTLVTVSS
VL: DIQMTQSPSSLSASVGDRVTITCRTSENLHNYLAWYQQKPGKSPKLLIYDAKTLADGVPSRFSGSGSGTDYTLTISSLQPEDFATYYCQHFWSDPYTFGQGTKLEIKR

fold change in binding strength compared to HuMAB2 [3]: ~1.5 fold
B6: H3-L112D (antibody, human IgG1, kappa, V domains shown)
VH: B3 VH
VL: B3 VL with K28D, N92D
notes: In the label, L means the L chain; Tested as culture supernatant; also called HuMAB2 variant L112D

fold change in binding strength compared to HuMAB2 [3]: ~1.5 fold
B8: H120F-L7 (antibody, human IgG1, kappa, V domains shown)
VH: B3 VH with Y102F
VL: B3 VL with K28D
notes: In the label, H means the H chain; Tested as culture supernatant; also called HuMAB2 variant H120F

fold change in binding strength compared to HuMAB2 [3]: ~1.5 fold
B9: H48S-L7 (antibody, human IgG1, kappa, V domains shown)
VH: B3 VH with N30S
VL: B3 VL with K28D
notes: Tested as culture supernatant; also called HuMAB2 variant H48S

binding result [4]: binds
B12: H71Y-L7 (antibody, human IgG1, kappa, V domains shown)
VH: B3 VH with F53Y
VL: B3 VL with K28D
notes: In the label, H means the H chain; also called HuMAB2 variant H71Y

Reference: patent US20230036655A1 (OTSUKA PHARMACEUTICAL, published 2023)
